Experimental data reported in paper PMC2855763.

Legend:
[1] = target: dVFP (VFP T160A) (Cyphastrea microphthalma); experiment: SEC
[2] = target: VFP (vivid Verde fluorescent protein) (Cyphastrea microphthalma); experiment: SEC

dVFP (VFP T160A) (natural protein)
stoichiometry N [1]: 2

VFP (vivid Verde fluorescent protein) (natural protein)
stoichiometry N [2]: 2
